# Like-named read-outs stand apart in the source and are kept apart here.
# T1: recombinant Clostridium perfringens enterotoxin (CPE) (aa 26–319, wild type) (Clostridium perfringens, UniProt P01558 26-319)
# T1 construct: also called CPE 26–319; holo-CPE
# T1 sequence: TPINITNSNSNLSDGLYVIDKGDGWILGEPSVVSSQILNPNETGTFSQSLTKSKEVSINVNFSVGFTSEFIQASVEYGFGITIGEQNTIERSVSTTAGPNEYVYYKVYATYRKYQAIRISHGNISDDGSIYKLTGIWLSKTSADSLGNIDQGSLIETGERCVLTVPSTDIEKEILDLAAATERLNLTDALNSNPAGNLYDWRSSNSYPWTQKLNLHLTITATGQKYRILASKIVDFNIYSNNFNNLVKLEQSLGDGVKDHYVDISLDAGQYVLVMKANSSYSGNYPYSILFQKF
# B1: GST human claudin-4 fusion protein (GST-ShCLDN4H8) (receptor)
# chain: MASMGLQVMGIALAVLGWLAVMLCCALPMWRVTAFIGSNIVTSQTIWEGLWMNCVVQSTGQMQCKVYDSLLALPQDLQAARALVIISIIVAALGVLLSVVGGKCTNCLEDESAKAKTMIVAGVVFLLAGLMVIVPVSWTAHNIIQDFYNPLVASGQKREMGASLYVGWAASGLLLLGGGLLCCNCPPRTDKPYSAKYSAARSAAASNYV
# Columns and labels:
# [1] = molecular target: Clostridium perfringens enterotoxin (CPE) (Clostridium perfringens) (UniProt P01558); conditions: cited from earlier work
# [2] = molecular target: Clostridium perfringens enterotoxin (CPE) (Clostridium perfringens) (UniProt P01558); conditions: cited from earlier work; remark: listed apart in the source
# [3] = molecular target: T1, recombinant Clostridium perfringens …; assay: SPR; […], multi-cycle, 120 s association, 1200 s dissociation; HBS-EP+ pH 7.4, 25 °C; Biacore T200; 1:1 Langmuir fit; conditions: both partners purified
molecule,measurement,setting,value
claudin-4 (from UniProt O14493),Kd,[1],3.4 nM
claudin-4 (from UniProt O35054),Kd,[2],9 nM
B1,Kd,[3],0.38 nM
same,koff,[3],0.00021 s⁻¹
same,kon,[3],560000 M⁻¹ s⁻¹

# From article PMC8068247, “Innovative and Highly Sensitive Detection of Clostridium perfringens Enterotoxin Based on Receptor Interaction and Monoclonal Antibodies” (Toxins, 2021)
